Reference: patent publication US8652467B2, “Dek protein compositions and methods of using the same” (The Regents of the University of Michigan, priority 2005, dated 2014)
“Also recorded” adds a separate entry of the source.

System: monocyte-depleted peripheral white blood cells
Assay: In vitro migration assay with monocyte-depleted peripheral white blood cells
Type: cell-based, human
Experimental: (A). […] Day 12 MDM grown in 10% serum were maintained for 12 h in serum-free conditioned media alone or with 10 ng/ml of recombinant IL-8. Supernatants were harvested, and secreted DEK detected in the supernatant by Western blot using DEK-specific monoclonal antibody. (B). DEK is a chemoattractant. Monocyte-depleted peripheral white blood cells were prepared. 1×10^5 cells in 100 μl RPMI were placed in the upper chambers of a 24-well chemotaxis microchamber plate with pore size of 3 μM. Lower chambers contained RPMI medium with various concentrations of recombinant DEK (made in baculovirus), recombinant GLI-2 control protein (also made in baculovirus), or no protein control (C′). After 1 h, the number of fluorescently labeled migrating cells in the lower chamber was determined at 485 nM/535 nm wavelengths by Tecan GENios (Phenix, Austria). The results are expressed as the average fold increase of the number of cells migrating toward DEK or GLI-2 compared to control wells containing medium only. Data shown using 34 nM and 68 nM DEK are the average of three different donors, while data using 136 nM DEK are the average of six different donors. […] (C). […] Fluorescence profiles were recorded by FACS analysis. The results are expressed as the average fold increase of the percentage of cells migrating toward DEK vs. control wells containing medium only. […]

B1: DEK: full-length recombinant DEK protein produced in baculovirus (protein, UniProt P35659 1-375, looked up)
chain: MSASAPAAEGEGTPTQPASEKEPEMPGPREESEEEEDEDDEEEEEEEKEKSLIVEGKREKKKVERLTMQVSSLQREPFTIAQGKGQKLCEIERIHFFLSKKKTDELRNLHKLLYNRPGTVSSLKKNVGQFSGFPFEKGSVQYKKKEEMLKKFRNAMLKSICEVLDLERSGVNSELVKRILNFLMHPKPSGKPLPKSKKTCSKGSKKERNSSGMARKAKRTKCPEILSDESSSDEDEKKNKEESSDDEDKESEEEPPKKTAKREKPKQKATSKSKKSVKSANVKKADSSTTKKNQNSSKKESESEDSSDDEPLIKKLKKPPTDEELKETIKKLLASANLEEVTMKQICKKVYENYPTYDLTERKDFIKTTVKELIS
modifications: full-length
notes: full-length recombinant DEK protein produced in baculovirus
79 nM DEK, 1 hour, FACS analysis, vs medium only
  migration of CD8+ cells and CD56+ cells towards DEK: statistically significant
34, 68, 136 nM DEK in lower chamber, 1 h, vs GLI-2 control protein or media alone
  migration of white blood cells toward DEK: statistically significant; also recorded: increase in a dose-dependent fashion
